# Earlier results as cited in article PMC5727865.
# Target: gp120 gp120 (Human immunodeficiency virus 1) (UniProt O70902)
# UniProt O70902, sequence (O70902 29-500): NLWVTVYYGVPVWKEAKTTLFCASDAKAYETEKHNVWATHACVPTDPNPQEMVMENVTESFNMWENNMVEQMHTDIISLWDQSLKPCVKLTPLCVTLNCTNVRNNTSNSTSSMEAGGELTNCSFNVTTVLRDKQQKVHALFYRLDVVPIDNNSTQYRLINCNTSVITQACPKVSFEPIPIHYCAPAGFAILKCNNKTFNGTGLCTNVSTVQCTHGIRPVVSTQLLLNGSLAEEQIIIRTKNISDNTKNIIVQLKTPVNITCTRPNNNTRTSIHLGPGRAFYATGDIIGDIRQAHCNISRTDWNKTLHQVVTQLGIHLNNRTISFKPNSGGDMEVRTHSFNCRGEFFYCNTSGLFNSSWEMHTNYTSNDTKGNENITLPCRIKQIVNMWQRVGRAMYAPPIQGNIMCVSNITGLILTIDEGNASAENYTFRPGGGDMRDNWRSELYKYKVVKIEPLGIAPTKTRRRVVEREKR
substance,measurement,value
DC-SIGN (from UniProt Q9NNX6),Kd,1.7 nM
